Reference: the DeepSol protein solubility set

assay: soluble on expression in E. coli; label from the status in PepcDB or PDB records

| Sequence | soluble on expression in E. coli |
| --- | --- |
| MGSDKIHHHHHHMESLSEGTTAGYQQIHDGIIHLVDSARTETVRSVNALMTATYQEIGRRIVEFEQGGEARAAYGAQLIKRLSKDLCLRYKRGFSAKNLRQMRLFYLFFQHVEIHQTMSGELTPLGIPQTPSAEFPSAKIWQTLSAKSFPLPRSTYVRLLSVKNADARSFYEKETLRCGWSVRQLERQIATQFYERTLLSHDKSAMLQQHAPAETHILPQQAIRDPFVLEFLELKDEYSESDFEEALINHLMDFMLELGDDFAFVGRQRRLRIDDNWFRVDLLFFHRRLRCLLIVDLKVGKFSYSDAGQMNMYLNYAKEHWTLPDENPPIGLVLCAEKGAGEAHYALAGLPNTVLASEYKMQLPDEKRLADELVRTQAVLEEGYRRR | not soluble |
| MAENRYELNKNLAQMLKGGVIMDVQNPEQARIAEAAGAAAVMALERIPADIRAVGGVSRMSDPKMIKEIQGAVSIPVMAKVRIGHFVEAQILEAIEIDYIDESEVLSPADNRFHVDKKEFQVPFVCGAKDLGEALRRIAEGASMIRTKGEPGTGDIVQAVRHMRMMSQEIRRIQNLREDELYVAAKDLQVPVELVQYVHKHGKLPVVNFAAGGIATPADAALMMQLGAEGVFVGSGIFKSGDPIKRASAIVKAVTNYRNPQILAQISEDLGEAMVGINENEIQILMAERGKLEHHHHHH | not soluble |
| GNNMYKLSENNHKSLLENLKRRGIIDDDDVYNTMLQVDRGKYIKEIPYIDTPVYISHGVTISAPHMHALSLKRLINVLKPGSRAIDVGSGSGYLTVCMAIKMNVLENKNSYVIGLERVKDLVNFSLENIKRDKPELLKIDNFKIIHKNIYQVNEEEKKELGLFDAIHVGASASELPEILVDLLAENGKLIIPIEEDYTQVLYEITKKNGKIIKDRLFDVCFVSLKKN | soluble |
| MSDSSSSDGEDNQKFLGNRKKNLTKKKVVTEEIEKDDEEDVKEKSFAELGVSQPLCDACQRLGWMKPSKIQQAALPHALQGKDVIGLAETGSGKTGAFAIPVLQSLLDHPQAFFCLVLTPTRELAFQIGQQFEALGSGIGLIAAVIVGGVDMAAQAMALARRPHIIVATPGRLVDHLENTKGFNLKALKFLIMDEADRILNMDFEVELDKILKVIPRERRTYLFSATMTKKVSKLERASLRDPARVSVSSRYKTVDNLKQHYIFVPNKYKETYLVYLLNEHAGNSAIVFCATCATTMQIAVMLRQLGMQAVPLHGQMSQEKRLGSLNKFKSKAREILVCTDVAARGLDIPHVDMVINYDMPSQSKDYVHRVGRTARAGRSGIAITVVTQYDVEAYQKIEANLGKKLDEYKCVENEVMVLVERTQEATENARIEMKEMDEKKKSGKKRRQNDDFGDTEESGGRFKMGIKSMGGRGGSGGGRGGKKKKMSK | soluble |
| MGSDKIHHHHHHMKQEVKGVQGQEYEIGLTVGDNRSDIFTFVISPESQIRKWEYVYIKAGETNLLGRIEDLLSKSDLLNDRMDYESVKKYTTSNIKDNVDICVVKIIGAVKDGIISRSRYLIRPGQPVFRATKEMLESIFKFDDQRSLEIGYLADQPDVKIFANINGLRRHLSIIAQTGAGKSHTAGVLMEELLKKGASIIVLDPHADYVLMKNSDKAIYRDNIKVFRTPMSTGRYTAKLGKVDEFTIKFQDLNDEEVREIMGIHENFVNQSKIVKDVMEKLTGRKDVDEFIQKSEQIDTEKRIAARIKYLKKIKAIFGDKTTDVSEYLAPSRMSVIDLSGLDQSLANYFAYKVISQAYDAKVTGSFEYPVFLFIEEAHNFAPPMKVKGSGVSQMLYDTIKKIAAEGRKFGIFLVIITQRPGKIDQDVLSQCNSQIILRITNPSDQKAILESSENISESLMSDLPSLDVGEAIIVGEIVKMPVIAKIRQRETEEGGLDVDIVEMLQKARMEAEKRNDPRAIVENVKKLME | not soluble |
| MPSERRPFQTAFLSNRKTVGKLAERVQSRYDGLHKFKHICSAAMALIKEPLDKVKQRNEELEAAEEAAAQEALGREQEAARVSEWEERYKLSRSEFEQFWKGLPQTVQNKLQASQKTWKSGMDKICANNAKAEGKTPNGIKFSELACKTAKTEARLEELHNRKKALIDEMAREADKKELSKRL | not soluble |
| MAHHHHHHMNSKDTNELKRGAGYLKEKAIIGLTRVTGNELDRAIYKVTSHKLKAPKEKHMQRVLAATRGYSSQKTHKGRNTCEYIVSEFEKRLHTHNWIVVLKTLVTFHRLMKDGSDEVNNCIQQNRNIFCFRNIKDLSESSEGAVQSVFIRQYMYYLEERSSSQRKLGASKRMENSEFGVFLRSLDVDTLGPVFESLLVQLSALVEVQYKEAIVDNFCTMEAFQRLVNDGKLLYQILSDRAIFILDGFSGFTLQQKKDWVRRYREYTVVGERLRLLFESIANSKRMFDEPPPPLKALPGSLLESLEREVRLSSIAHEDITETLESLGITADEKTPLKATTSDGTMAIYSPVATEKALDTTETGAPPVTEPKKESGFSIDDLFVPPPVTDSHQQTSYNPSTIPQGTQMEGPLIQTEANPNMTYTFPTGVPVGQNFFGQQPTGNSLTWEAPSPAPGSMQPQSAAGIVPSWSDSSASWGRGNCGSNTVDPFKDLYASQKGGQ | soluble |
| SEGSASEVLKEWIVTGKKKNKKKKSKPKPASEASGSAPDSSKSAPIQEEQPASSEKGSINGYHVNGAINDAESVDSLSEGLETLSIDARELEDPEFAAAETLDRTGSVLENGVSDFEPKSLTAHSISNVQQSRNAAKSLSRTTPGAQVSNLGMENVPLSSTNKKLGSNIEKSVKDLQRCTVSLARYRVVVKEEMDASIKKMKQAFAELQSCLMDREVALLAEMDKVKAEAMEILLSRQKKAELLKKMTDVAVRMSEEQLVELRADIKHFVSERKYDEDLGRVARFTCDVETLKQSIDSFGQVSHPKNSYSTRSRCSLVAPVSLSGPSDGSAASSSPDASVPSLPGANKRNCAPREASAAMTNSSDRPCQAHREVFPGNRRGGQGYRAQSQKTADPSNPGRHDSVGRYRNSSWYSSGPRYQGVPPQAPGNAGERSRPYSAGTNGTGAISEPSPPKPSFKKGLPQRKPRASQAEAANS | not soluble |
| MSRLLSGGVGVIFAVLFSVNVGNARDQIQITGSSTVLPYQKIVAEIFGEIYPHFKIPVIESGGTGGGIKEFCRGIGENAIDIVNASRAMKLSELQSCFDAGVKDVEEIRIGYDGIVFATDINGPDWKLQPVDIYRALAARIMKDGKLQSNNVSKWSAVNSALPGWTIAAYIPGEKH | not soluble |
| MKIEKFKVLLYLKKSRPDKSGKAPIMGRITVNRSMVQFSCKLSCTPDLWNPRESRLNGKSNEAVEVNAKLDKLLLSIHAAFDTLVERKADFDAEAVKNLFQGSLETQMTLLAMTDIVCEELRKRIGIDRAKGTYPAYFYTRRTLAEFIQKKFHSKDIAFGQLTEQFIHDYQFFVVDDKGLTIETSRHYLAIIKKVCRKAYKEGYADKCFFAHFSLPKQEEKTPKALSRESFEKIRDLVIPEHRSSHILARDLFLFACYTGTSYADAVSVTRDNLFTDDEGSLWLKYRRKKNELQACVKLLPEALELIEKYNDDTRPTLFPMLYHPNLRRLMKCLAVLADIKEDLTYHAGRHSFASLITLEAGVPIETICKMLGHSNLQTTQRYAKVTPKKLFEDMDKYIEATKDLKLIL | not soluble |
| MQAWIQQGLHGMQMGGRVGNYDQTFVVYGPVFLPNATQSKISEINYGGKILLPSSALNLLMQYNIPMPMLFKLTNMAVQRVTHCGVLEFSAPEGQAILPLWMMQQLGLDDGDTIRIESATLPKATFAKLKPMSLEFLNITNPKAVLEVELRKYACLTKNDRIPTSYAGQTLEFLVVDLKPANSVCIIECDVNLDFDPPEGYVEQPRQVTPAVTAKPPAPDASAFIGAGQKAGGSGGTGQNATSVFGGAGRRLDGKKKPSSSVSLSDGTGVSTSNAAPVANDLPAIPPVVVNEDYKPGRVSFLRYDYKRVDVLEKELREKEASKAGQPSNVFRGGNRTLRGAR | not soluble |
| MTEIRVHQGDLPNLDNYRIDAVAVDTETLGLQPHRDRLCVVQLSSGDGTADVIQIAKGQKSAPNLVRLLSDRDITKIFHFGRFDLAILAHTFGVMPDVVFCTKIASKLTRTYTDRHGLKEICGELLNVNISKQQQSSDWAAETLSRAQIEYAASDVLYLHRLKDIFEERLKREERESVAKACFQFLPMRANLDLLGWSEIDIFAHS | not soluble |
| MDDSLGVSEVVMIPFMKREVLQQICAILDTDNTWETIAPYMPGIELRDVEGCKRYSSYNQSPSELLLRIWSSKGYSTTHLYQLFAKTKLIRLMRMMRSQVHEKYHYLENKVTNSTSRVSKQMVQPPGSQSASRLKKTEIKESSPSPAAAAASQLSRSNTDDTLRVAIEGTLPVTYCELLEATNGFAVSNVIGKGGYGTVYKGELKGTGGIVAVKRLHSGNDTSQNGSRERLRQSLTELRTLARFRHDNILPIYAYSLEGSEPCLVYQFMSNGSLEDRLLCRKGSVPLTWIQRKEISIGAGRGLGFLHSFGKTPIIHGDIKTANILLDKHMEPKIGDFGLCRDGHVEAEAMEKHPLIASHIKGTLAYLAPEFITSKILTTKLDVYSFGIVLLEIASGQRAYSDSRETRGLVEYCQVNKELAAHRKIPVREIFIDRRAPPLVGDEEKSFLDALIEVGLAGANNDRKVRPTMSQIVEYLCKNSIPPVV | not soluble |
| MDSTARGHAPLCRTSNQRGLGTRLNPYYQSTPHQPMVQSMSNPIGSYGEQGNAQIIGSSGQVLSTGPPPGLAPVQCNDFDSCYSSCDDISHPSLSRESSDPSKIDDDQTAPMIRYPAPEVVEFATKLGYSTEQLSHVLNTIGVDSRMDDVLSELVKMGLPGGKPENSGKSGSRNSPEPIMTSSASSSSASSSSSHRPIRQSVSIATSSPATSSSTPSKYNPDPSLRAVVVDGSNVAMLHGRKEVFSCAGLRECLNYFLERGHPEVLIFIPQYRREQPRSDSPITDQHILQEIERHIIYTPSRNVNGRRVVCHDDRYILRTAELKDAVIVSNDEYRDLTRENPAWRKIVEERLLMFTFVEDKSVF | not soluble |
| MSLKKSDATGGEVASAEPIAKIPAPAGKAWTETFSVTPDGGYLLGNPDAPIKLIEFGALSCSHCAEFSEKGFPKLRDEYIASGRVSYELRLFLLNALDMPAVLLATCGAPEAVIPLSEQFWAWQPNMFSNLQKDEAAFQQISNLPAEKRFAGIAQLGGLSEFFASRGIAAAQGATCLADTAKATRLATVNDQWGKEYDITGTPTFFLNGSKTGVATWAELEPMLQKAGAREGHHHHHH | soluble |
| MGSDKIHHHHHHMTKVRVAGFGVSLDGFAAGTAQSLDHPLGVRGEEIFQWFFPTRTFRQMLGKEGGDTGLDDRFAQRAMEGFGAFILGRNMFGPVRGEWPDDQWKGWWGDNPPYHAPTFILTHHARPSIEMLGGTTFHFVTGGIEDALEKARKAAGGKDVKIGGGVKTVKQYVQAGYVDEIHLAFAPVALGQGESLFGGLDLRTLGYQTVEHVPTDRATHIVLAK | not soluble |
| MKRDDLMQIIKRDGHVADFDPDKIYQAIIKAARTVYVIDDTWRQNLTHVTKKVVIDLEEAHVERPTINMVQSLVENRLMDAGYITIAEHYISYRLQRDLERNGYGDKIVVHLRFEQIK | soluble |
| MQRIVIVGGGVGGTMLANLLVVRLYPEILGGEVQVLLISDSPDHYYKPAFMYVAFEQFFLEDLKRPQRSLLRPEVMFQLDRVDRFDFPRQELQTRSGRRHGYDYLVIATGCVPAPERIEGLKEAGDHFYQYQPARRLAERLASLESGRVFITVSFPRTPNVPHQCGIAPVETTLMLDDYLRRRGVRERVEIVYTYPTTAQLLRNCLFLQRPTCEILPSLFEQRGIRFQRGFTLARVDPERRIAYSEEGDEQPFDLLMATPPIHAVDAVRECGLPQAAADEGWLPTNHETLQVYGVDRVYTLGDTVDLPVSKAGGACHNQAPVVASNIAAEIRLGKPCAIYDGRVQAVAQMGLNAGMPLWYDYRHDVKPTPPTKLGGLLRQGFNRGLYWAVARGMLLEHHHHHH | soluble |
